# Experimental data reported in patent US7902330 (ALBERT EINSTEIN COLLEGE OF MEDICINE OF YESHIVA UNIVERSITY, dated 2011).
# Starred links: 1 amine or outer side, 2 acyl side, 3 side chain; linkers in the order of their positions; H or OH if unused. Non-standard residues stand in square brackets, D forms with d. No end group written: not given here. *: point of attachment. 4‑nitrohippuryl = O=C(NCC(=O)*)c1ccc([N+](=O)[O-])cc1; Benzoyl(4-(pyrrol-1-yl)) = O=C(c1ccc(-n2cccc2)cc1)*; 10‑hydroxydecanoyl = O=C(CCCCCCCCCO)*; 2,3‑dihydroxybenzyl = Oc1cccc(C*)c1O; Cysteamide = C(CS[*:3])N[*:1]; Dap = NC[C@H](N)C(=O)O
# T1: protein kinase C ζ (UniProt Q05513 1-592, limits assumed)
# T1 sequence (looked up): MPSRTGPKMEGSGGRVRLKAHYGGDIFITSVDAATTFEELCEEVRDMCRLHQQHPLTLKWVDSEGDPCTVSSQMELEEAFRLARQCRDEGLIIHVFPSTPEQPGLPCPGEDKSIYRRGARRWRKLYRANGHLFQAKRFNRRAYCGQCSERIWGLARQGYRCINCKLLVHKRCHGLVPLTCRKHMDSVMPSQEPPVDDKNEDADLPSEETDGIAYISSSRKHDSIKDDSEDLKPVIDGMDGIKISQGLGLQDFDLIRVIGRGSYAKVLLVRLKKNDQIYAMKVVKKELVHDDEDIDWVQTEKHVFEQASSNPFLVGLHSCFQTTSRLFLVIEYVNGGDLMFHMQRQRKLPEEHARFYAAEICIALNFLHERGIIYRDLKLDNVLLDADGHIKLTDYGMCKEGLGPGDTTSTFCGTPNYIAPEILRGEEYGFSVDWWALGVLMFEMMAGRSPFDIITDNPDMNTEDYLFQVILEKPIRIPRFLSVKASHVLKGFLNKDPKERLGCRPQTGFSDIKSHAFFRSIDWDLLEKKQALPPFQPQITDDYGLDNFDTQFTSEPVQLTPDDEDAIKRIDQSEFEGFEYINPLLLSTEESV
# T2: protein kinase C ε (UniProt Q02156 1-737, limits assumed)
# T2 sequence (looked up): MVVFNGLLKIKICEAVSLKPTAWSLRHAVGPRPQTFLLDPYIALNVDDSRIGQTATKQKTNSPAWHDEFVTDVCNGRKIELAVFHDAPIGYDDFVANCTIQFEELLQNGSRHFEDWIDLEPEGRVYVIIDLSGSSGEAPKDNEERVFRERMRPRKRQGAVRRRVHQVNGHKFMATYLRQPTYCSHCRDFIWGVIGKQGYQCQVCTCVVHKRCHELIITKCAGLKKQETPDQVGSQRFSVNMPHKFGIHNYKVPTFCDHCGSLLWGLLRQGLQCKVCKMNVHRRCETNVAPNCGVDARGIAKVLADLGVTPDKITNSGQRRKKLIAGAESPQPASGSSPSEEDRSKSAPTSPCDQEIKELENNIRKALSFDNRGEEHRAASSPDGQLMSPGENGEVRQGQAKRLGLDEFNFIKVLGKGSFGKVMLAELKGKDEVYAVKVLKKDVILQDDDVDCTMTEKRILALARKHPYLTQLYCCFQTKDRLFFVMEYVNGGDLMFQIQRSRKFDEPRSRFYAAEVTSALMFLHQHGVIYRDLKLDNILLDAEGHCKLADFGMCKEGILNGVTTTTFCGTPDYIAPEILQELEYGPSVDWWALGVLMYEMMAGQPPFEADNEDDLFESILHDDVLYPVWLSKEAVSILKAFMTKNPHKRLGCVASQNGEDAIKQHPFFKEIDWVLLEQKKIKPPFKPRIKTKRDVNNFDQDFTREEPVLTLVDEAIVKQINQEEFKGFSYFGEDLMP
# T3: protein kinase C τ (atypical; ι in the tables) (UniProt P41743 1-596)
# T3 sequence (looked up): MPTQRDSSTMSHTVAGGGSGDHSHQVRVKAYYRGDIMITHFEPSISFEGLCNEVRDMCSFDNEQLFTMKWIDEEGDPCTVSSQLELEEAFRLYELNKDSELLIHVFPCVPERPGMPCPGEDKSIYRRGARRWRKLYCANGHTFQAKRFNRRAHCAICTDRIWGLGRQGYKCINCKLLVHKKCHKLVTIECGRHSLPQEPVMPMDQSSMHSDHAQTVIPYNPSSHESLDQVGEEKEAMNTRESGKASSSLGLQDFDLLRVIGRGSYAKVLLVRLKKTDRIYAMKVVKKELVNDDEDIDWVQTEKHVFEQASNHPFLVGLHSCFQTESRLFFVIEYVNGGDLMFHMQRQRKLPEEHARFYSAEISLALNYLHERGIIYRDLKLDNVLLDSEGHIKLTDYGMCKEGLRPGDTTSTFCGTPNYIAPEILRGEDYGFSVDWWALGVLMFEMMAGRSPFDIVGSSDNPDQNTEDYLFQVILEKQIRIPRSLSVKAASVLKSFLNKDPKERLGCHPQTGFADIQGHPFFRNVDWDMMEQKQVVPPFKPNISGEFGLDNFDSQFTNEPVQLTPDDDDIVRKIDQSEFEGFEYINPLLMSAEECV
# B1: compound 4 (diacetylated control peptide) (peptide)
# peptide: Ac-ARRGALR[Dap](Ac)A-NH2
# notes: also called peptide 4; starting parent peptide 4
# B2: Compound C (peptide)
# peptide: Ac-RRQG[Dap](4‑nitrohippuryl)FMYF-Cysteamide
# SMILES: CSCC[C@H](NC(=O)[C@H](Cc1ccccc1)NC(=O)[C@H](CNC(=O)CNC(=O)c1ccc([N+](=O)[O-])cc1)NC(=O)CNC(=O)[C@H](CCC(N)=O)NC(=O)[C@H](CCCNC(=N)N)NC(=O)[C@H](CCCNC(=N)N)NC(C)=O)C(=O)N[C@@H](Cc1ccc(O)cc1)C(=O)N[C@@H](Cc1ccccc1)C(=O)NCCS
# Legend:
# protein kinase Cα [1] = molecular target: T4, protein kinase Cα (UniProt P17252 1-672, limits assumed); assay: PKCα 33P kinase assay, Ki obtained by varying the concentration of peptide substrate Ac-Ser-Phe-Arg-Arg-Arg-NH2
# T4 construct: also called PKCα; PKC α
# Protocol: Subsequent assay workup and scintillation counting were performed as described under "Protein Kinase C α, β and γ Assay (library screening)".
# The reaction was initiated as described above. […] Following an additional 5 min incubation at ambient temperature, 75 µL from each reaction well was transferred into each well of a Unifilter (P81 cellulose phosphate paper) assay plate and washed four times with 0.1% phosphoric acid in water. […] IC$50$ values were calculated using GraFit (Erithacus Software Limited) and K_i values were calculated using Enzyme Kinetics, SigmaPlot (SPSS Inc.)
# protein kinase Cα [2] = molecular target: T4, protein kinase Cα; assay: cell-based or functional assay
# protein kinase C ζ [3] = molecular target: T1, protein kinase C ζ; assay: cell-based or functional assay
# protein kinase C βI [4] = molecular target: T5, protein kinase C βI (UniProt P05771-1 1-671, limits assumed); assay: cell-based or functional assay
# T5 sequence (P05771 whole entry): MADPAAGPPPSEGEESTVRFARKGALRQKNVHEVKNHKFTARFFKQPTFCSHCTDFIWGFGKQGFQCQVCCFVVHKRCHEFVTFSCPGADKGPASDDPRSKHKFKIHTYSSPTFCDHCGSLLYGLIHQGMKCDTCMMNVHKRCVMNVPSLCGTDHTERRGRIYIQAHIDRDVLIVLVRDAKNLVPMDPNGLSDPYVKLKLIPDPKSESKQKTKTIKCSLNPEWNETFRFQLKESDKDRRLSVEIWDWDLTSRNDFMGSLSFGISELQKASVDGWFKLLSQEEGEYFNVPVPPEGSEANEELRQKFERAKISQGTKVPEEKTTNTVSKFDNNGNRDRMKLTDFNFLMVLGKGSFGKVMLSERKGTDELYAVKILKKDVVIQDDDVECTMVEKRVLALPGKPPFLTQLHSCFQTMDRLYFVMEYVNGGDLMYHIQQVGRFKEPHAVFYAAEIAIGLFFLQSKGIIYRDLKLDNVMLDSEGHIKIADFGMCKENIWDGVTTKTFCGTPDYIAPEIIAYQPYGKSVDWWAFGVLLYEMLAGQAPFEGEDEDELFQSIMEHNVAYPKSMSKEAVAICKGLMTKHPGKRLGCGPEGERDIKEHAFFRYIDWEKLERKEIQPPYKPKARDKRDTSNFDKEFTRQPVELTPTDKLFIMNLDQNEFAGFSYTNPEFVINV
# protein kinase Cα [5] = molecular target: T4, protein kinase Cα; assay: cell-based or functional assay; remark: listed apart in the source
# protein kinase C γ [6] = molecular target: T6, protein kinase C γ (UniProt P05129 1-697, limits assumed); assay: cell-based or functional assay
# protein kinase C θ [7] = molecular target: T7, protein kinase C θ (UniProt Q04759 1-706, limits assumed); assay: cell-based or functional assay
# T7 sequence (Q04759 whole entry): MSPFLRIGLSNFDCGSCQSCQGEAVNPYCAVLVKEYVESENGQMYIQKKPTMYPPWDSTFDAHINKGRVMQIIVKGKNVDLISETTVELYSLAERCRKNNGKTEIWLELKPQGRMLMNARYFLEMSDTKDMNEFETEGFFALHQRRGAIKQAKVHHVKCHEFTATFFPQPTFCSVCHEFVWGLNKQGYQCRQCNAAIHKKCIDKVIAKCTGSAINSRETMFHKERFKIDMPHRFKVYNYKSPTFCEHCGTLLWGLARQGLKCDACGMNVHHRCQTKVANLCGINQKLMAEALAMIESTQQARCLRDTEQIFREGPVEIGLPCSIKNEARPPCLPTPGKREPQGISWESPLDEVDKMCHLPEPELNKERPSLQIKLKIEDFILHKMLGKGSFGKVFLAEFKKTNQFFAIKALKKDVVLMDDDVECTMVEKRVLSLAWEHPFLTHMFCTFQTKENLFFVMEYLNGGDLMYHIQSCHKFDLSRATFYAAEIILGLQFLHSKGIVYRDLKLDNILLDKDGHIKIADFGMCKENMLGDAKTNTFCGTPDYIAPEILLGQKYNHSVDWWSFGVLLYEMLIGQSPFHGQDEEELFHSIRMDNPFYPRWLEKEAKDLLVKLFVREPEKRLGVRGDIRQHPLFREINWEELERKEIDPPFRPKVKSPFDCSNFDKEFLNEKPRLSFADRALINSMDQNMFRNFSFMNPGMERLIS
# protein kinase C η [8] = molecular target: T8, protein kinase C η (UniProt P24723 1-683, limits assumed); assay: cell-based or functional assay
# T8 sequence (P24723 whole entry): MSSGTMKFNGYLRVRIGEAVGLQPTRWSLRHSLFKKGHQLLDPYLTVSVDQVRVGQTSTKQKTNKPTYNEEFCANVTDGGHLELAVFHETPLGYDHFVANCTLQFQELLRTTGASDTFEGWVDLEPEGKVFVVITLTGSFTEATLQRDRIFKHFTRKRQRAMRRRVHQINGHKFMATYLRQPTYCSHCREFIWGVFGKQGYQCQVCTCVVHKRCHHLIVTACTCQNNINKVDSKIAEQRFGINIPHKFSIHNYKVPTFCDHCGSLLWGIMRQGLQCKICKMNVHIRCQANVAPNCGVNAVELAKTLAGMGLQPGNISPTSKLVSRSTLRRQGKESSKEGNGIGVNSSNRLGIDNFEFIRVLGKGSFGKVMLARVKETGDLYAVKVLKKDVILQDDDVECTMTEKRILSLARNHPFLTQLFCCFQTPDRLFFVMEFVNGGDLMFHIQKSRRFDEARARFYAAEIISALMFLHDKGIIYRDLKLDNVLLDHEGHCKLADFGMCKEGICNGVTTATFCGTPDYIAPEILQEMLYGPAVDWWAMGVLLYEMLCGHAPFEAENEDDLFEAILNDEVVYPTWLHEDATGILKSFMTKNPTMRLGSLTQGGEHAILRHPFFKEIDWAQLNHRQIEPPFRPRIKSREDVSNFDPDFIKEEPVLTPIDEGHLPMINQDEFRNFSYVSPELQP
# protein kinase C ε [9] = molecular target: T2, protein kinase C ε; assay: cell-based or functional assay
# [10] = molecular target: T3, protein kinase C τ (atypical; printed ι …); assay: cell-based or functional assay
# protein kinase C βI [11] = molecular target: T5, protein kinase C βI; assay: cell-based or functional assay; remark: listed apart in the source
# protein kinase Cα [12] = molecular target: T4, protein kinase Cα; assay: cell-based or functional assay; remark: listed apart in the source
# protein kinase C γ [13] = molecular target: T6, protein kinase C γ; assay: cell-based or functional assay; remark: listed apart in the source
# protein kinase C θ [14] = molecular target: T7, protein kinase C θ; assay: cell-based or functional assay; remark: listed apart in the source
# protein kinase C ζ [15] = molecular target: T1, protein kinase C ζ; assay: cell-based or functional assay; remark: listed apart in the source
# protein kinase C η [16] = molecular target: T8, protein kinase C η; assay: cell-based or functional assay; remark: listed apart in the source
# protein kinase C ε [17] = molecular target: T2, protein kinase C ε; assay: cell-based or functional assay; remark: listed apart in the source
# [18] = molecular target: T3, protein kinase C τ (atypical; printed ι …); assay: cell-based or functional assay; remark: listed apart in the source
# protein kinase C βI [19] = molecular target: T5, protein kinase C βI; assay: cell-based or functional assay; remark: listed apart in the source
# protein kinase Cα [20] = molecular target: T4, protein kinase Cα; assay: cell-based or functional assay; remark: listed apart in the source
# protein kinase C γ [21] = molecular target: T6, protein kinase C γ; assay: cell-based or functional assay; remark: listed apart in the source
# protein kinase C θ [22] = molecular target: T7, protein kinase C θ; assay: cell-based or functional assay; remark: listed apart in the source
# protein kinase C ζ [23] = molecular target: T1, protein kinase C ζ; assay: cell-based or functional assay; remark: listed apart in the source
# protein kinase C η [24] = molecular target: T8, protein kinase C η; assay: cell-based or functional assay; remark: listed apart in the source
# protein kinase C ε [25] = molecular target: T2, protein kinase C ε; assay: cell-based or functional assay; remark: listed apart in the source
# [26] = molecular target: T3, protein kinase C τ (atypical; printed ι …); assay: cell-based or functional assay; remark: listed apart in the source
binder,measurement,setting,value
B1,Ki,protein kinase Cα [1],350 µM
same,"IC50, PKCα-catalysed phosphorylation of peptide substrate (33P assay)",protein kinase Cα [2],1100 µM
Ac-RRQG[Dap](10‑hydroxydecanoyl)FMYF-Cysteamide [Compound B],"IC50, PKC ζ kinase assay",protein kinase C ζ [3],0.85 µM
same,IC50 relative to the diacetylated parent peptide A,protein kinase C ζ [3],~100 fold
Ac-RRQG[Dap](Ac)FMYF-Cysteamide [Compound A (diacetylated consensus derivative)],"IC50, PKC kinase assay",protein kinase C ζ [3],80 µM
B2,"IC50, PKC ζ kinase assay",protein kinase C ζ [3],6.4 µM
Ac-ARRGALR[Dap](Benzoyl(4-(pyrrol-1-yl)))A-Cysteamide (also called peptide 3) [compound 3 (lead from library III)],Ki,protein kinase Cα [1],0.55 µM
same,"IC50, PKCα-catalysed phosphorylation of peptide substrate (33P assay)",protein kinase Cα [2],4.7 µM
"ARRGALR[Dap](Benzoyl(4-(pyrrol-1-yl)))A-Cysteamide (also: further groups not given here, also called peptide 6; Compound H) [compound 6 (primary lead from library IV)]",selectivity for PKCα versus this isoform,protein kinase C βI [4],385 fold
same,IC50 as an inhibitor of histone III-S phosphorylation by PKCα,protein kinase Cα [5],0.0317 µM
same,selectivity for PKCα versus this isoform,protein kinase C γ [6],580 fold
same,selectivity for PKCα versus this isoform,protein kinase C θ [7],1210 fold
same,selectivity for PKCα versus this isoform,protein kinase C ζ [3],640 fold
same,selectivity for PKCα versus this isoform,protein kinase C η [8],1310 fold
same,selectivity for PKCα versus this isoform,protein kinase C ε [9],600 fold
same,selectivity for PKCα versus this isoform,[10],940 fold
same,Ki,protein kinase Cα [1],0.0008 µM
same,"IC50, PKCα-catalysed phosphorylation of peptide substrate (33P assay)",protein kinase Cα [2],0.0019 µM
H-RRQG[Dap]FMYF-Cysteamide (not fully specified (residue 5)) [Compound E (nonacylated free amine)],"IC50, PKC kinase assay (33P, peptide substrate)",protein kinase C βI [11],0.008 µM
same,Selectivity (IC50 relative to PKC βI = 1),protein kinase C βI [11],1 fold
same,"IC50, PKC kinase assay (33P, peptide substrate)",protein kinase Cα [12],3.1 µM
same,Selectivity (IC50 relative to PKC βI = 1),protein kinase Cα [12],387 fold
same,"IC50, PKC kinase assay (33P, peptide substrate)",protein kinase C γ [13],4.4 µM
same,Selectivity (IC50 relative to PKC βI = 1),protein kinase C γ [13],550 fold
same,"IC50, PKC kinase assay (33P, peptide substrate)",protein kinase C θ [14],14.2 µM
same,Selectivity (IC50 relative to PKC βI = 1),protein kinase C θ [14],1780 fold
same,"IC50, PKC kinase assay (33P, peptide substrate)",protein kinase C ζ [15],0.022 µM
same,Selectivity (IC50 relative to PKC βI = 1),protein kinase C ζ [15],2.8 fold
same,"IC50, PKC kinase assay (33P, peptide substrate)",protein kinase C η [16],13.2 µM
same,Selectivity (IC50 relative to PKC βI = 1),protein kinase C η [16],1650 fold
same,"IC50, PKC kinase assay (33P, peptide substrate)",protein kinase C ε [17],2.3 µM
same,Selectivity (IC50 relative to PKC βI = 1),protein kinase C ε [17],287 fold
same,Selectivity (IC50 relative to PKC βI = 1),[18],94 fold
"{2,3‑dihydroxybenzyl}-RRQG[Dap](4‑nitrohippuryl)FMYF-Cysteamide [Compound F]","IC50, PKC kinase assay (33P, peptide substrate)",protein kinase C βI [11],3.1 µM
same,"IC50, PKC kinase assay (33P, peptide substrate)",protein kinase Cα [12],17 µM
same,"IC50, PKC kinase assay (33P, peptide substrate)",protein kinase C γ [13],9 µM
same,"IC50, PKC kinase assay (33P, peptide substrate)",protein kinase C θ [14],13.7 µM
same,"IC50, PKC kinase assay (33P, peptide substrate)",protein kinase C ζ [15],3.6 µM
same,"IC50, PKC kinase assay (33P, peptide substrate)",protein kinase C η [16],12.3 µM
same,"IC50, PKC kinase assay (33P, peptide substrate)",protein kinase C ε [17],8.8 µM
same,"Fold selectivity (IC50), PKC δ = 1",protein kinase C βI [19],172 fold
same,"Fold selectivity (IC50), PKC δ = 1",protein kinase Cα [20],944 fold
same,"Fold selectivity (IC50), PKC δ = 1",protein kinase C γ [21],500 fold
same,"Fold selectivity (IC50), PKC δ = 1",protein kinase C θ [22],761 fold
same,"Fold selectivity (IC50), PKC δ = 1",protein kinase C ζ [23],200 fold
same,"Fold selectivity (IC50), PKC δ = 1",protein kinase C η [24],683 fold
same,"Fold selectivity (IC50), PKC δ = 1",protein kinase C ε [25],489 fold
same,"Fold selectivity (IC50), PKC δ = 1",[26],26 fold
